Test results as given in patent US8993320B2, “Culture method to obtain and maintain a pure or enriched population of mammalian neural stem cells and/or neural/progenitor cells that are prone to differentiate into oligodendrocyte-lineage cells in vitro” (priority 2011, dated 2015).

Experiments:
[1] = test system: HFSC cells; test: Expansion of HFSC cells with growth factors and supplements (live cell count); format: cell-based, human; details: 10 ng/ml NT-3 added at passage 17; cell line #2b; effect disappeared after a passage
[2] = test system: HFSC cells; test: as above; format: cell-based, human; details: cell line #2b and cell line #3; same condition except for PDGF-AA
Description: FIG. 4 illustrates the expansion rate of HFSC cells (cell line #2b) in the presence of different combinations of growth factors: (1): 20 ng/ml PDGF-AA+10 ng/ml bFGF; (2): 20 ng/ml PDGF-AA+10 ng/ml bFGF+5 ng/ml NT-3; (3): 20 ng/ml PDGF-AA+10 ng/ml bFGF+10 ng/ml IGF-1; (4): 20 ng/ml PDGF-AA+10 ng/ml bFGF+5 ng/ml NT-3+10 ng/ml IGF-1. The cells were harvested at day 11 of passage 3 (P3D11) and number of live cells in each condition was counted. Then, they were passaged in the same condition that was used at passage 3 at the same cell density. The cells were harvested at day 8 of passage 4 (P4D8) and number of live cells in each condition was counted (these cells were harvested before they became sub-confluent because they started forming spheres). […] Condition (3) was effective at both passages. […] The cells were harvested at day 7 of passage 5 (these cells were harvested before they became sub-confluent because they started forming spheres as they did at passage 4) and number of live cells in each condition was counted. […]

B1: neurotrophin-3 (protein, UniProt P20783 139-257, looked up)
Neurotrophin-3: YAEHKSHRGEYSVCDSESLWVTDKSSAIDIRGHQVTVLGEIKTGNSPVKQYFYETRCKEARPVKNGCRGIDDKHWNSQCKTSQTYVRALTSENNKLVGWRWIRIDTSCVCALSRKIGRT
notes: growth factor
effect on cell growth [1]: enhanced the cell growth a little bit

B2: PDGF-BB: PDGF family member used to replace PDGF-AA (protein, UniProt P01127 82-190, looked up)
Platelet-derived growth …: SLGSLTIAEPAMIAECKTRTEVFEISRRLIDRTNANFLVWPPCVEVQRCSGCCNNRNVQCRPTQVQLRPVQVRKIEIVRKKPIFKKATVTLEDHLACKCETVAAARPVT
expansion of cells when replacing PDGF-AA [2]: could expand both cell lines
